Data taken from patent US20250326842A1 (BEIGENE SWITZERLAND, published 2025).
Substitutions are numbered along the chain they refer to.

Assays:
Human C1q = Human C1q (human, UniProt P02745 23-245; P02746 28-253; P02747 29-245); experiment: ELISA: plate coated with increasing amounts of antibody, human C1q at 8 µg/mL, anti-C1q antibody detection
Protocol: Human C1q (100 uL total: 8 μg/mL) was incubated in the antibody-coated wells. Bound C1q was detected by a specific anti-C1q monoclonal antibody. ELISA readings at 450 nm were plotted on the y-axis.

[1] = biological target: T1, human PVRIG expressed on cells (human, UniProt Q6DKI7 41-326); experiment: cell-based or functional assay
T1 sequence: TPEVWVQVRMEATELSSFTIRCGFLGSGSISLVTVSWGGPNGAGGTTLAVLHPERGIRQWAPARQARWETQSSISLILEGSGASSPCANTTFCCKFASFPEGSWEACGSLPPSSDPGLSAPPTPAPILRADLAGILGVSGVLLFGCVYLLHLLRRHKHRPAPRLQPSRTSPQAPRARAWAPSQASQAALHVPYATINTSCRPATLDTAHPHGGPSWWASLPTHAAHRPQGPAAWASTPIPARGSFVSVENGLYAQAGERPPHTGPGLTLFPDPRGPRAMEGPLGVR

[2] = biological target: T2, human PVRIG recombinant protein (human, UniProt Q6DKI7 41-171); experiment: SPR, antibody captured via anti-human Fc, human PVRIG analyte
T2 construct: also called human PVRIG protein; recombinant human antigen PVRIG
T2 sequence: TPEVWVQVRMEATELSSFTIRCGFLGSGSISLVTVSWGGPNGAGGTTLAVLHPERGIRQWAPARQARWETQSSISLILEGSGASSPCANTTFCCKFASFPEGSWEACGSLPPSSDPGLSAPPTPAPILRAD
Excerpt: For affinity determination, anti-PVRIG antibodies were captured by anti-human Fc antibodies, and used in the affinity assay based on surface plasmon resonance (SPR) technology.

FcγRI = FcγRI (human, UniProt P12314 16-288, limits assumed); experiment: Biacore, KD from kinetic constants (koff/kon)
Protocol: (§1) K¹ (M) values were calculated from the ratio of the kinetic constants as KD=koff/kₒₙ. K2 (M) values were determined by the analyte concentration at which half of the ligands are occupied at equilibrium.

human PVRIG-mIgG2a [3] = biological target: T3, human PVRIG-mIgG2a (human, UniProt Q6DKI7 41-171, limits assumed); experiment: cell-based competition, BGA384 against binding of hPVRIG-mIgG2a (300 ng/ml) to Farage-hPVRL2 cells, flow cytometry
T3 construct: also called hPVRIG-mIgG2a; hPVRIG; not shown: mouse IgG2a Fc
T3 sequence: T2 sequence
Excerpt: The bound human PVRIG was detected with PE anti-mouse IgG2a antibody by flow cytometry.

[4] = biological target: T2, human PVRIG recombinant protein; experiment: competition ELISA, BGA384 against biotinylated human PVRL2 (Fc-Avi-tag) on coated human PVRIG
[5] = biological target: T1, human PVRIG expressed on cells; experiment: flow cytometry on Jurkat cells expressing human PVRIG, anti-hFc-647 detection [panel B]
Protocol: To evaluate the binding activity of anti-PVRIG antibodies to native PVRIG on living cells, Jurkat cells were engineered to express human PVRIG. Jurkat cells expressing PVRIG were seeded in 96 well plates and were incubated with serially diluted anti-PVRIG antibodies. […] EC50 values for dose dependent binding to human native PVRIG were determined by fitting the dose response data to the four-parameter logistic model with GraphPad Prism™.

human PVRIG-mIgG2a [6] = biological target: T3, human PVRIG-mIgG2a; experiment: ELISA, hPVRIG-mIgG2a coated at 0.5 µg/mL
FcγRIIIA F158 = FcγRIIIA F158 (human, UniProt P08637 17-208, limits assumed); experiment: Biacore, KD from equilibrium analysis
Protocol: as §1

FcγRIIA R131 = biological target: T4, FcγRIIA R131 (human, UniProt P12318 36-218, limits assumed); experiment: Biacore, KD from equilibrium analysis
T4 sequence (looked up): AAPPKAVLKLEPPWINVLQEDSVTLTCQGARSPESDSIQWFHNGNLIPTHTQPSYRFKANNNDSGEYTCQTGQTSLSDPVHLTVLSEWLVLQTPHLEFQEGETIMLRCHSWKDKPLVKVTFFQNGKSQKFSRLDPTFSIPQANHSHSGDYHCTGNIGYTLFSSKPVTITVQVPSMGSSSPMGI
Protocol: as §1

FcγRIIB = biological target: T5, FcγRIIB (human, UniProt P31994 46-217, limits assumed); experiment: Biacore, KD from equilibrium analysis
T5 sequence (looked up): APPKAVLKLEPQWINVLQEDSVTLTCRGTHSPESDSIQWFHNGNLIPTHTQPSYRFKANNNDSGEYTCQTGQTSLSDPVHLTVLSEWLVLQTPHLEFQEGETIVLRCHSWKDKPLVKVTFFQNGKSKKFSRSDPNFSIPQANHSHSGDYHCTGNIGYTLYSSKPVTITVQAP
Protocol: as §1

FcγRIIIA V158 = FcγRIIIA V158 (human, UniProt P08637 17-208, limits assumed); experiment: Biacore, KD from equilibrium analysis
Protocol: as §1

FcγRIIA H131 = biological target: T6, FcγRIIA H131 (human, UniProt P12318 36-218, limits assumed); experiment: Biacore, KD from equilibrium analysis
T6 sequence (looked up): T4 sequence (looked up) with R132H
Protocol: as §1

hPVRIG-ECD-his [7] = biological target: T7, hPVRIG-ECD-his (human, UniProt Q6DKI7 41-171); experiment: blocking ELISA: hPVRIG-His coated, antibody mixed with PVRL2-biotin at 1 ug/mL; % inhibition of PVRL2 binding [panel B]
T7 construct: Acrobiosystems PVG-H52H4; also called hPVRIG-His; human PVRIG-His; not shown: His tag
T7 sequence: T2 sequence

hPVRIG-ECD-his [8] = biological target: T7, hPVRIG-ECD-his; experiment: SPR (Biacore), BGA384 captured via anti-human Fc, human PVRIG-His analyte
Protocol: SPR koff and kₒₙ were calculated using the one-to-one Langmuir binding model (BIA Evaluation Software, GE Life Sciences); KD was calculated as the ratio of koff/kₒₙ.

Human C1q, sequence (P02745 23-245 limits assumed, chain 1 of 3): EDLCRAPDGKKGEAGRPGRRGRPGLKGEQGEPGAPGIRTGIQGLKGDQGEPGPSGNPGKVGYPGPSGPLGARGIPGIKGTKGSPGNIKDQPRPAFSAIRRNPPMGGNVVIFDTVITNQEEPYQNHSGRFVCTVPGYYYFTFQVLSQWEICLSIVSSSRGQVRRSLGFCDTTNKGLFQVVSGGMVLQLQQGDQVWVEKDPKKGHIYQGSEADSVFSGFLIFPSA
Human C1q, sequence (P02746 28-253 limits assumed, chain 2 of 3): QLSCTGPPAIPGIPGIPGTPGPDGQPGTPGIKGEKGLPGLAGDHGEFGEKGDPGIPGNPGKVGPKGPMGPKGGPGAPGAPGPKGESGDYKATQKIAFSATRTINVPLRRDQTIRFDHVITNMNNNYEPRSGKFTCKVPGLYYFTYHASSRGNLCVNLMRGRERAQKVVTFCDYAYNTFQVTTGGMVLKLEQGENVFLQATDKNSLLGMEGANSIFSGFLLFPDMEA
Human C1q, sequence (P02747 29-245 limits assumed, chain 3 of 3): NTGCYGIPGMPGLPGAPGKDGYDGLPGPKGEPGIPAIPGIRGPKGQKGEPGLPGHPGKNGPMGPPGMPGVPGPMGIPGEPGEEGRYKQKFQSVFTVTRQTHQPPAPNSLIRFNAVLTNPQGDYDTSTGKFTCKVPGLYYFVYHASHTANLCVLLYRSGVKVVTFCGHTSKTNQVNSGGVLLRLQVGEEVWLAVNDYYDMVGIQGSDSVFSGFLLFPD
FcγRIIIA F158, sequence (P08637 17-208 limits assumed): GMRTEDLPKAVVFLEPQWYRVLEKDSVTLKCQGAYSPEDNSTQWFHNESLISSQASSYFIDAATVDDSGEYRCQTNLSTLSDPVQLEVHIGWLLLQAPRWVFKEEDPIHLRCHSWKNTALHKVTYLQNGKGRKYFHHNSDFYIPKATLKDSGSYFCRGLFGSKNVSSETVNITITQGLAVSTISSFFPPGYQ
FcγRIIIA V158, sequence (P08637 17-208 F176V limits assumed): as the sequence (P08637 17-208 limits assumed) above, with F160V counted along it
FcγRI, sequence (P12314 16-288 limits assumed): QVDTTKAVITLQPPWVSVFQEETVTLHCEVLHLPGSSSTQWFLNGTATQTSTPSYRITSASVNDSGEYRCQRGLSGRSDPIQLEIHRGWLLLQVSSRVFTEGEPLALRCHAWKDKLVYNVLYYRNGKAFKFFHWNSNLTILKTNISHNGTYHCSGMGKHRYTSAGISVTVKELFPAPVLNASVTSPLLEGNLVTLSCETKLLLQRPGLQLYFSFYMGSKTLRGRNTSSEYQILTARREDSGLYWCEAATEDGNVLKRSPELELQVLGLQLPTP

- EC50 (read off the curve) (Human C1q): ~2 µg/mL
- EC50 of promoter-driven luminescence, JK-NFAT-HuPVRIG with A549/OS8-H cells [1]: 37.7 ng/mL
- Kd [2]: 0.258 nM
- koff [2]: 0.000304 s⁻¹
- kon [2]: 1.18e+06 M⁻¹ s⁻¹
- Kd (FcγRI): 3.26 nM
- IC50 (human PVRIG-mIgG2a [3]): 0.109 µg/mL
- IC50 [4]: 0.383 µg/mL
- EC50 (read off the curve) [5]: ~0.03 µg/mL
- EC50 (human PVRIG-mIgG2a [6]): 8.79 ng/mL
- Kd (FcγRIIIA F158): 689 nM
- Kd (FcγRIIA R131): 1920 nM
- Kd (FcγRIIB): 9.23 µM
- Kd (FcγRIIIA V158): 297 nM
- Kd (FcγRIIA H131): 1480 nM
- IC50 (read off the curve) (hPVRIG-ECD-his [7]): ~0.4 µg/mL
- Kd (hPVRIG-ECD-his [8]): 0.0826 nM
- koff (hPVRIG-ECD-his [8]): 0.000344 s⁻¹
- kon (hPVRIG-ECD-his [8]): 4.16e+06 M⁻¹ s⁻¹
B1: BGA384 (antibody, human IgG1, kappa)
heavy: not shown
light: QIVLTQSPATLSLSPGERATLSCSAGSSVNYMHWFQQKPGQAPRLLIYSTSNLASGVPARFSGSGSGTDYTLTISSLEPEDFAVYYCQQRSSLPFTFGQGTKLEIKRTVAAPSVFIFPPSDEQLKSGTASVVCLLNNFYPREAKVQWKVDNALQSGNSQESVTEQDSKDSTYSLSSTLTLSKADYEKHKVYACEVTHQGLSSPVTKSFNRGEC
notes: also called BGB-A538; BGA384 WT
